Source: publication PMC10786891, “Massively parallel profiling of RNA-targeting CRISPR-Cas13d”
Where a chain is given by its changes, count along the chain named. Numbers in names are those of the source.

T1: EsCas13d, nuclease-dead (Eubacterium siraeum, UniProt B0MS50, R295A;H300A;R849A;H854A)
T1 sequence: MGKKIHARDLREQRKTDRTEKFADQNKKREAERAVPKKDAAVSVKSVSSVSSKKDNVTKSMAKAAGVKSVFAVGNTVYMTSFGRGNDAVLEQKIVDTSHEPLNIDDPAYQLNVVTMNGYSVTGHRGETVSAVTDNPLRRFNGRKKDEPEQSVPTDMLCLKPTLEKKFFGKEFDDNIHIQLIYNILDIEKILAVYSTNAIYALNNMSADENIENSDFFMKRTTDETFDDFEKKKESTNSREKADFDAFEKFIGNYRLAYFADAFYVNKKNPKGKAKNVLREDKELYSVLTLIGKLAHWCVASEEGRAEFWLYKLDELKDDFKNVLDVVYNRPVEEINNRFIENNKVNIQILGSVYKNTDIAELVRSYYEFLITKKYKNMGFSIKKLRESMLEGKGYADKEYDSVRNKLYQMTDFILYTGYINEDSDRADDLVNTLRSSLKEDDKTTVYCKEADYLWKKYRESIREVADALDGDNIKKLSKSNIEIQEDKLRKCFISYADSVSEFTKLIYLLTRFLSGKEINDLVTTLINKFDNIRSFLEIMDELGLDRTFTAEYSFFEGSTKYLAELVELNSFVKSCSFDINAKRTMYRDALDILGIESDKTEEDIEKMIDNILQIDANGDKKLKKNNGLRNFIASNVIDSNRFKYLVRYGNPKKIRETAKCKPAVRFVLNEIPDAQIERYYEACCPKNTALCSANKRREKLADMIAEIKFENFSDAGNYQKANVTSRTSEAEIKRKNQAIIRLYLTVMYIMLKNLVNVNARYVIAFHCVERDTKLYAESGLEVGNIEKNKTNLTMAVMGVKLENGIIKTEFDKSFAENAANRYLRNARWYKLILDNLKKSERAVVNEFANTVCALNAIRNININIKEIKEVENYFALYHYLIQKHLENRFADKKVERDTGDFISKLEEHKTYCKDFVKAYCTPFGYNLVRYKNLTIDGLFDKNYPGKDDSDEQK

B1: target 1 insG 3' of 14,insC 3' of 14 (mixed)
RNA 1: CACCCGUGCAAAAAUGCAGGGGUCUAAAACUGAGCGGAUAACCUCUCUAUGG
RNA 2: GGGAAUGGAUCCACAUCUACGAAUUCGUACCAUAGAGAGCGGUUAUCCGCUCACCGAGAUCGGAAGAGCACACGU
B2: target 1 insG 3' of 6,insC 3' of 1 (mixed)
RNA 1: B1 RNA 1
RNA 2: GGGAAUGGAUCCACAUCUACGAAUUCGUACCAUAGAGAGGUUAUCCGGCUCACCCGAGAUCGGAAGAGCACACGU
B3: target 1 insC 3' of 8,insU 3' of 2 (mixed)
RNA 1: B1 RNA 1
RNA 2: B2 RNA 2 with G47C, A52U, C53A
B4: target 1 complement block 3-14 (mixed)
RNA 1: B1 RNA 1
RNA 2: GGGAAUGGAUCCACAUCUACGAAUUCGUACCAUAGAGUCCAAUAGGCGACACCGAGAUCGGAAGAGCACACGU
B5: target 1 insU 3' of 13,insA 3' of 6 (mixed)
RNA 1: B1 RNA 1
RNA 2: B1 RNA 2 with C40U, G42U, U44A, A45U, U46C, C48A
B6: target 1 C4G,A18U (mixed)
RNA 1: B1 RNA 1
RNA 2: GGGAAUGGAUCCACAUCUACGAAUUCGUACCAUUGAGAGGUUAUCCGGUCACCGAGAUCGGAAGAGCACACGU
B7: target 1 insG 3' of 21,insU 3' of 7 (mixed)
RNA 1: B1 RNA 1
RNA 2: GGGAAUGGAUCCACAUCUACGAAUUCGUACCGAUAGAGAGGUUAUCUCGCUCACCGAGAUCGGAAGAGCACACGU
B8: target 1 insG 3' of 18,insU 3' of 4 (mixed)
RNA 1: B1 RNA 1
RNA 2: B7 RNA 2 with G32A, A33U, U34A, A35G, U47C, C48G, G49C, C50U
B9: target 1 del20,del22 (mixed)
RNA 1: B1 RNA 1
RNA 2: GGGAAUGGAUCCACAUCUACGAAUUCGUACUAGAGAGGUUAUCCGCUCACCGAGAUCGGAAGAGCACACGU
B10: target 1 G5C,G12A (mixed)
RNA 1: B1 RNA 1
RNA 2: B6 RNA 2 with U34A, G40A, G47C, G48C
B11: target 1 C2A,C4A (mixed)
RNA 1: B1 RNA 1
RNA 2: B6 RNA 2 with U34A, G48A, C50A
B12: target 1 del17,del19 (mixed)
RNA 1: B1 RNA 1
RNA 2: B9 RNA 2 with U31C, G33A
B13: target 1 G12U,G15A (mixed)
RNA 1: B1 RNA 1
RNA 2: B6 RNA 2 with U34A, G37A, G40U, G48C
B14: target 1 insA 3' of 21,insC 3' of 5 (mixed)
RNA 1: B1 RNA 1
RNA 2: B7 RNA 2 with G32A, U47C, C48G, G49C
B15: target 1 insG 3' of 11,insC 3' of 10 (mixed)
RNA 1: B1 RNA 1
RNA 2: B1 RNA 2 with C40G, G41U, U44C
B16: target 1 insC 3' of 8,insA 3' of 5 (mixed)
RNA 1: B1 RNA 1
RNA 2: B2 RNA 2 with G47C, C49A, U50C, C51U, A52C, C53A
B17: target 1 insG 3' of 11,insG 3' of 6 (mixed)
RNA 1: B1 RNA 1
RNA 2: B1 RNA 2 with C40G, G41U, U44A, A45U, U46C, C48G
B18: target 1 insU 3' of 20,insC 3' of 12 (mixed)
RNA 1: B1 RNA 1
RNA 2: B7 RNA 2 with G32A, A33U, U42C, A44U, U45A, C46U, U47C
B19: target 1 del20 (mixed)
RNA 1: B1 RNA 1
RNA 2: GGGAAUGGAUCCACAUCUACGAAUUCGUACCUAGAGAGGUUAUCCGCUCACCGAGAUCGGAAGAGCACACGU
B20: target 1 insA 3' of 17,insU 3' of 2 (mixed)
RNA 1: B1 RNA 1
RNA 2: GGGAAUGGAUCCACAUCUACGAAUUCGUACCAUAGAAGAGGUUAUCCGCUCUACCGAGAUCGGAAGAGCACACGU
B21: target 1 insA 3' of 15,insU 3' of 4 (mixed)
RNA 1: B1 RNA 1
RNA 2: B20 RNA 2 with A37G, G38A, C51U, U52C
B22: target 1 insU 3' of 12,insC 3' of 5 (mixed)
RNA 1: B1 RNA 1
RNA 2: B20 RNA 2 with A37G, G38A, A39G, G41U, U50C, C51U, U52C
B23: target 1 insA 3' of 22,insU 3' of 2 (mixed)
RNA 1: B1 RNA 1
RNA 2: B20 RNA 2 with C31A, A32C, U33A, A34U, G35A, A36G
B24: target 1 del8,del20 (mixed)
RNA 1: B1 RNA 1
RNA 2: GGGAAUGGAUCCACAUCUACGAAUUCGUACCUAGAGAGGUUACCGCUCACCGAGAUCGGAAGAGCACACGU
B25: target 1 insG 3' of 18,insA 3' of 10 (mixed)
RNA 1: B1 RNA 1
RNA 2: B1 RNA 2 with A36G, G37A, A38G, G39A, C40G, G42U, U44A
B26: target 1 C6G,G17C (mixed)
RNA 1: B1 RNA 1
RNA 2: B6 RNA 2 with U34A, G35C, C46G, G48C
B27: target 1 insA 3' of 10,insG 3' of 7 (mixed)
RNA 1: B1 RNA 1
RNA 2: B1 RNA 2 with C40G, G41U, G42U, U43A, U44A, A45U, U46C, C47G
B28: target 1 insG 3' of 6,insA 3' of 2 (mixed)
RNA 1: B1 RNA 1
RNA 2: B2 RNA 2 with C53A
B29: target 1 A1C,G12A (mixed)
RNA 1: B1 RNA 1
RNA 2: B6 RNA 2 with U34A, G40A, G48C, A51C
B30: target 1 insA 3' of 7,insA 3' of 2 (mixed)
RNA 1: B1 RNA 1
RNA 2: B2 RNA 2 with C46A, G47C, C53A
B31: target 1 C6G,C22G (mixed)
RNA 1: B1 RNA 1
RNA 2: B6 RNA 2 with C30G, U34A, C46G, G48C
B32: target 1 insG 3' of 11,insU 3' of 9 (mixed)
RNA 1: B1 RNA 1
RNA 2: B1 RNA 2 with C40G, G41U, U44A, A45U

target: T1, EsCas13d, nuclease-dead; assay: crRNA (strand 1, pre-loaded); Mg2+; 40 mM Tris-HCl pH 7.5, 150 mM NaCl, 6 mM MgCl2, 1 mM DTT, 0.1% Tween-20, 0.2 mg/ml BSA; 25 C; 10 min per concentration, then washed; conditions: tags: His6-TwinStrep-SUMO cleaved; N-terminal SNAP kept (SNAP-Surface 488); label: 3' end held by stalled T7 RNA polymerase

Row | Binder | Kd [nM]
1 | B1 | 34 ± 6
2 | B2 | 13.1 ± 0.9
3 | B3 | 21.3 ± 2.8
4 | B4 | ~60
5 | B5 | 33.9 ± 3.2
6 | B6 | 22.7 ± 2.4
7 | B7 | 73 ± 9
8 | B8 | 63 ± 4
9 | B9 | 9 ± 1.2
10 | B10 | 8.6 ± 0.4
11 | B11 | 10.3 ± 0.5
12 | B12 | 50 ± 5
13 | B13 | 11.3 ± 1.3
14 | B14 | 45 ± 7
15 | B15 | 21.3 ± 0.9
16 | B16 | 13.2 ± 1.2

Row | Binder | Kd [nM]
17 | B17 | 39 ± 4
18 | B18 | 37 ± 14
19 | B19 | 31 ± 1.6
20 | B20 | 15.4 ± 1.6
21 | B21 | 9.5 ± 1.2
22 | B22 | 9.8 ± 1.2
23 | B23 | 14.6 ± 1
24 | B24 | 74 ± 9
25 | B25 | 64 ± 6
26 | B26 | ~41
27 | B27 | 12.4 ± 0.7
28 | B28 | 12.6 ± 0.7
29 | B29 | 6.6 ± 0.5
30 | B30 | 7.2 ± 0.8
31 | B31 | 35 ± 5
32 | B32 | 28 ± 5
